Assay results: the DeepSol protein solubility set

Assay: soluble on expression in E. coli; label from the status in PepcDB or PDB records

Row | Sequence | soluble on expression in E. coli
1 | RKRYYNTIEDMKGKIRVYCRIRPLNEKESSEREKQMLTTVDEFTVEHPWKDDKRKQHIYDRVFDMRASQDDIFEDTKYLVQSAVDGYNVCIFAYGQTGSGKTFTIYGHESNPGLTPRATKELFNILKRDSKRFSFSLKAYMVELYQDTLVDLLLPKSARRLKLEIKKDSKGMVFVENVTTIPISTLEELRMILERGSERRHVSGTNMNEESSRSHLILSVVIESIDLQTQSAARGKLSFVDLAGSERVKKSGSAGNQLKEAQSINKSLSALGDVIGALSSGNQHIPYRNHKLTMLMSDSLGGNAKTLMFVNVSPAESNLDETYNSLLYASRVRTIVNDPSKHISSKEMVRLKKLVAYWKEQAGKKGEEEDLVDIEEDRTRKDEADS | soluble
2 | RMALDEVWDSSHFALQPGRAEDGPGASLALRILAARLPDSGVYVCHARNAHGHAQAGALLQVHQPPESPPADPDEAPAPVVEPLKCAPKTFWVNEGKHAKFRCYVMGKPEPEIEWHWEGRPLLPDRRRLMYRDRDGGFVLKVLYCQAKDRGLYVCAARNSAGQTLSAVQLHVKEPRLRFTRPLQDVEGREHGIAVLECKVPNSRIPTAWFREDQRLLPCRKYEQIEEGTVRRLIIHRLKADDDGIYLCEMRGRVRTVANVTVKGPILKRLPRKLDVLEGENAVLLVETLEAGVEGRWSRDGEELPVICQSSSGHMHALVLPGVTREDAGEVTFSLGNSRTTTLLRVKCVKHSPPGPPILAEMFKGHKNTVLLTWKPPEPAPETPFIYRLERQEVGSEDWIQCFSIEKAGAVEVPGDCVPSEGDYRFRICTVSGHGRSPHVVFHGSAHLVPTARLVAGLEDVQVYDGEDAVFSLDLSTIIQGTWFLNGEELKSNEPEGQVEPGALRYRIEQKGLQHRLILHAVKHQDSGALVGFSCPGVQDSAALTIQESPVHILSPQDKVSLTFTTSERVVLTCELSRVDFPATWYKDGQKVEESELLVVKMDGRKHRLILPEAKVQDSGEFECRTEGVSAFFGVTVQDPPVHIVDPREHVFVHAITSECVMLACEVDREDAPVRWYKDGQEVEESDFVVLENEGPHRRLVLPATQPSDGGEFQCVAGDECAYFTVTITDVSSWIVYPSGKVYVAAVRLERVVLTCELCRPWAEVRWTKDGEEVVESPALLLQKEDTVRRLVLPAVQLEDSGEYLCEIDDESASFTVTVTEPPVRIIYPRDEVTLIAVTLECVVLMCELSREDAPVRWYKDGLEVEESEALVLERDGPRCRLVLPAAQPEDGGEFVCDAGDDSAFFTVTVTEPPVQFLALETTPSPLCVAPGEPVVLSCELSRAGAPVVWSHNGRPVQEGEGLELHAEGPRRVLCIQAAGPAHAGLYTCQSGAAPGAPSLSFTVQVAEPPVRVVAPEAAQTRVRSTPGGDLELVVHLSGPGGPVRWYKDGERLASQGRVQLEQAGARQVLRVQGARSGDAGEYLCDAPQDSRIFLVSVEEPLLVKLVSDLTPLTVHEGDDATFRCEVSPPDADVTWLRNGAVVTPGPQRQSCCSYGGCRMCGQRKARTCVSKWRQAEWVQRGPCAGCEVGSPCPTTLACPWPRMGTSTASSSMVSYWPTRAPTAARATTIAPWPGSA | soluble
3 | RMASVWQRLGFYASLLKRQLNGGPDVIKWERRVIPGCTRSIYSATGKWTKEYTLQTRKDVEKWWHQRIKEQASKISEADKSKPKFYVLSMFPYPSGKLHMGHVRVYTISDTIARFQKMRGMQVINPMGWDAFGLPAENAAVERNLHPQSWTQSNIKHMRKQLDRLGLCFSWDREITTCLPDYYKWTQYLFIKLYEAGLAYQKEALVNWDPVDQTVLANEQVDEHGCSWRSGAKVEQKYLRQWFIKTTAYAKAMQDALADLPEWYGIKGMQAHWIGDCVGCHLDFTLKVHGQATGEKLTAYTATPEAIYGTSHVAISPSHRLLHGHSSLKEALRMALVPGKDCLTPVMAVNMLTQQEVPVVILAKADLEGSLDSKIGIPSTSSEDTILAQTLGLAYSEVIETLPDGTERLSSSAEFTGMTRQDAFLALTQKARGKRVGGDVTSDKLKDWLISRQRYWGTPIPIVHCPVCGPTPVPLEDLPVTLPNIASFTGKGGPPLAMASEWVNCSCPRCKGAAKRETDTMDTFVDSAWYYFRYTDPHNPHSPFNTAVADYWMPVDLYIGGKEHAVMHLFYARFFSHFCHDQKMVKHREPFHKLLAQGLIKGQTFRLPSGQYLQREEVDLTGSVPVHAKTKEKLEVTWEKMSKSKHNGVDPEEVVEQYGIDTIRLYILFAAPPEKDILWDVKTDALPGVLRWQQRLWTLTTRFIEARASGKSPQPQLLSNKEKAEARKLWEYKNSVISQVTTHFTEDFSLNSAISQLMGLSNALSQASQSVILHSPEFEDALCALMVMAAPLAPHVTSEIWAGLALVPRKLCAHYTWDASVLLQAWPAVDPEFLQQPEVVQMAVLINNKACGKIPVPQQVARDQDKVHEFVLQSELGVRLLQGRSIKKSFLSPRTALINFLVQD | soluble
4 | RPDKVKLALDKTSYRAGDTLKVTITPPHPGKGLLLVESDKPLYVQAIDANPSTTLEIPVTADWERHDVYVTALVFRGGSASNNTTPARAVGEAYVPMQRKERRVAVGLVVPKQVRPAQSLPVTVSVPELAGKQAHVTISAVDAGILNITGF | not soluble
5 | RQAVGPGGVPAGAGGSGAVLGPEAAGPEREEPECGSSGGGMSRPPPTGKMPGAPETAPGDGAGASRQRKLEALIRDPRSPINVESLLDGLNSLVLDLDFPALRKNKNIDNFLNRYEKIVKKIRGLQMKAEDYDVVKVIGRGAFGEVQLVRHKASQKVYAMKLLSKFEMIKRSDSAFFWEERDIMAFANSPWVVQLFYAFQDDRYLYMVMEYMPGGDLVNLMSNYDVPEKWAKFYTAEVVLALDAIHSMGLIHRDVKPDNMLLDKHGHLKLADFGTCMKMDETGMVHCDTAVGTPDYISPEVLKSQGGDGFYGRECDWWSVGVFLYEMLVGDTPFYADSLVGTYSKIMDHKNSLCFPEDAEISKHAKNLICAFLTDREVRLGRNGVEEIRQHPFFKNDQWHWDNIRETAAPVVPELSSDIDSSNFDDIEDDKGDVETFPIPKAFVGNQLPFIGFTYYRENLLLSDSPSCRENDSIQSRKNEESQEIQKKLYTLEEHLSNEMQAKEELEQKCKSVNTRLEKTAKELEEEITLRKSVESALRQLEREKALLQHKNAEYQRKADHEADKKRNLENDVNSLKDQLEDLKKRNQNSQISTEKVNQLQRQLDETNALLRTESDTAARLRKTQAESSKQIQQLESNNRDLQDKNCLLETAKLKLEKEFINLQSALESERRDRTHGSEIINDLQGRICGLEEDLKNGKILLAKVELEKRQLQERFTDLEKEKSNMEIDMTYQLKVIQQSLEQEEAEHKATKARLADKNKIYESIEEAKSEAMKEMEKKLLEERTLKQKVENLLLEAEKRCSLLDCDLKQSQQKINELLKQKDVLNEDVRNLTLKIEQETQKRCLTQNDLKMQTQQVNTLKMSEKQLKQENNHLMEMKMNLEKQNAELRKERQDADGQMKELQDQLEAEQYFSTLYKTQVRELKEECEEKTKLGKELQQKKQELQDERDSLAAQLEITLTKADSEQLARSIAEEQYSDLEKEKIMKELEIKEMMARHKQELTEKDATIASLEETNRTLTSDVANLANEKEELNNKLKDVQEQLSRLKDEEISAAAIKAQFEKQLLTERTLKTQAVNKLAEIMNRKEPVKRGNDTDVRRKEKENRKLHMELKSEREKLTQQMIKYQKELNEMQAQIAEESQIRIELQMTLDSKDSDIEQLRSQLQALHIGLDSSSIGSGPGDAEADDGFPESRLEGWLSLPVRNNTKKFGWVKKYVIVSSKKILFYDSEQDKEQSNPYMVLDIDKLFHVRPVTQTDVYRADAKEIPRIFQILYANEGESKKEQEFPVEPVGEKSNYICHKGHEFIPTLYHFPTNCEACMKPLWHMFKPPPALECRRCHIKCHKDHMDKKEEIIAPCKVYYDISTAKNLLLLANSTEEQQKWVSRLVKKIPKKPPAPDPFARSSPRTSMKIQQNQSIRRPSRQLAPNKPS | soluble
6 | RQLKVGQLVLSATPLPSLDEQARSLALVNLVRRKGIELLPWNPELRQWQARVDMLRQLDIQNGQAESKWPDLSDTSLLETLEK | not soluble
7 | RRHKNKNPFHFNSKRFQTLFKNQYGHVRVLQRFNKRSQQLQNLRDYRILEFNSKPNTLLLPHHADADYLIVILNGTAILTLVNNDDRDSYNLQSGDALRVPAGTTYYVVNPDNDENLRMITLAIPVNKPGRFESFFLSSTQAQQSYLQGFSKNILEASYDTKFEEINKVLFGREEGQQQGEERLQESVIVEISKKQIRELSKHAKSSSRKTISSEDKPFNLRSRDPIYSNKLGKLFEITPEKNPQLRDLDVFLSVVDMNEGALFLPHFNSKAIVVLVINEGEANIELVGIKEQQQRQQQEEQPLEVRKYRAELSEQDIFVIPAGYPVVVNATSDLNFFAFGINAENNQRNFLAGSKDNVISQIPSQVQELAFPGSAKDIENLIKSQSESYFVDAQPQQKEEGNKGRKGPLSSILRAFY | soluble
8 | RSSLDLQLKNARNLAGLIIHDIDGYMMKGDSSEVDRFISAVKSKNFIMDLRVFDEQAKEVSPTPSQTPNAKIQQAIAAGRTLEFKETLDGKRTLSLVLPFPNEQRCQSCHDAGAAYLGGLLVTTSIEEGYEGARH | soluble
9 | RTGFSVGAGVEYNFSRHWAIQSGLMITSKGATAEYEGYSPLSSSTDPISYKAKISPIYLDIPILAAFKIDISNHVKFAINIGPYLSVGMGGKYELTNTGGHKNESHNPFKSYSSTAEMKDKDALLKRFDIGVQGGIGFEIWKHYLINASFQHGFMDPIKGGTLYAGDTEKHYPIGGILTVGYRF | not soluble
10 | RVMLRQTQYLNEAIKLMASKNLSVPFGMDCKDEYGDVARELEKTRRQLHDVIQMQINASDELATLTEVMTLSMSETKESA | not soluble
11 | RYPTNNFGNCTGCSATFSVLKKRRSCSNCGNSFCSRCCSFKVPKSSMGATAPEAQRETVFVCASCNQTLSK | soluble
12 | SAAANPWDPASAPNGAGLVLGHFIASGMVNQEMLNMSKKTVSCFVNFTRLQQITNIQAEIYQKNLEIELLKLEKDTADVVHPFFLAQKCHTLQSMNNHLEAVLKEKRSLRQRLLKPMCQENLPIEAVYHRYMVHLLELAVTFIERLETHLETIRNIPHLAANLKKMNQALAKMDILVTETEELAENILKWRKQQNEVSSCIPKILAEESYLYKHDIIMPPLPFTSKVHVQTINAK | soluble
13 | SAAQKINEGLEHLAKAEKYLKTGFLKWKPDYDSAASEYGKAAVAFKNAKQFEQAKDACLREAVAHENNRALFHAAKAYEQAGMMLKEMQKLPEAVQLIEKASMMYLENGTPDTAAMALERAGKLIENVDPEKAVQLYQQTANVFENDERLRQAVELLGKASRLLVRGRRFDEAALSIQKEKNIYKEIENYPTCYKKTIAQVLVHLHRNDYVAAERCVRESYSIPGFNGSEDCAALEQLLEGYDQQDQDQVSDVCNSPLFKYMDNDYAKLGLSLVVPGGGIKKKSPATPQAKPDGVTATAADEEEDEYSGGLC | soluble
14 | SAHSKTRTNDGKITYPPGVKEISDKISKEEMVRRLKMVVKTFMDMDQDSEEEKELYLNLALHLASDFFLKHPDKDVRLLVACCLADIFRIYAPEAPYTSPDKLKASTDLNNSKIDRYFDLSF | soluble
15 | SAQDVDECSLGANPCEHAGKCINTLGSFECQCLQGYTGPRCEIDVNECVSNPCQNDATCLDQIGEFQCICMPGYEGVHCEVNTDECASSPCLHNGRCLDKINEFQCECPTGFTGHLCQVDLHHILDAQKMVWNHR | soluble
16 | SAQKEEAAVATEAASQNGEDLENLDDPEKLKELIELPPFEIVTGERLPANFFKFQFRNVEYSSGRNKTFLCYVVEAQGKGGQVQASRGYLEDEHAAAHAEEAFFNTILPAFDPALRYNVTWYVSSSPCAACADRIIKTLSKTKNLRLLILVGRLFMWEEPEIQAALKKLKEAGCKLRIMKPQDFEYVWQNFVEQEEGESKAFQPWEDIQENFLYYEEKLADILK | soluble
17 | SASASTQPAALSAEQAKVVLAEVIQAFSAPENAVRMDEARDNACNDMGKMLQFVLPVATQIQQEVIKAYGFSCDGEGVLKFARLVKSYEAQDPEIASLSGKLKALFLPPMTLPPHGPAAGGSVAAS | soluble
